Measured values: article PMC2576468, “The orthologue of the "acatalytic" mammalian ART4 in chicken is an arginine-specific mono-ADP-ribosyltransferase” (BMC Molecular Biology, 2008)

Substrate: NC(=O)c1ccc[n+]([C@@H]2O[C@H](COP(=O)([O-])OP(=O)(O)OC[C@H]3O[C@@H](n4cnc5c4ncn4ccnc54)[C@H](O)[C@@H]3O)[C@@H](O)[C@H]2O)c1
Test: purified protein
Format: biochemical, Gallus gallus
Conditions: poly-L-arginine 1 mg/ml as acceptor, PBS pH 7.4, room temperature, glycosylated protein (no PNGase F)

B1: recombinant chicken ART4 (chART4) (Gallus gallus) (protein)
chain: SHLMMDMALHSFDDQYLGCREQMMEELERGDYFQKEIAANKNYSSLWKKAQEALLKSSVGLLREMHDSHATALMAYTMNSSLHSQLNWATSTAGRSPEQYRHNFSFKYFHFYLTTAIQIMKQWQSSKDNVRKRHCYRVHRGVKDLYIKATVGSIVRFGRFTSTSCLWNEAQKFGNETLFTVTTCLGAAMQGFSYYTSEKEVLIPPYEIFLVKNFFRTRRGNRLHLHSVGNYSKYHYQLLEASRIKNGGSTA
notes: N-glycosylated
  Km: 1.0 ± 0.18 µM
